Tests used:
[1] = molecular target: CSFV sE2 (soluble E2 protein, 693-1020aa) with (His)6 tag (classical swine fever virus); assay: SPR; Biacore T100; […] (20 μg/ml) […]; 20 mM Hepes, 150 mM NaCl, 0.005% Tween 20, pH 7.4, […]; 1:1 binding model
[2] = molecular target: CSFV sE2 (soluble E2 protein, 693-1020aa) with (His)6 tag (classical swine fever virus); assay: SPR; Biacore […] (20 μg/ml) […]; 20 mM Hepes, 150 mM NaCl, 0.005% Tween 20, pH 7.4, […]; 1:1 binding model

soluble metalloproteinase domain of pig ADAM17 (sMP) with (His)6 tag (from UniProt O77636 18-477) (domain or fragment)
Kd [1]: 100 nM | Kd [2]: 3200 nM

Source: article PMC7971878
